Reference: publication PMC8910471, “The Finely Coordinated Action of SSB and NurA/HerA Complex Strictly Regulates the DNA End Resection Process in Saccharolobus solfataricus”

Assays:
SSB [1] = target: T1, SSB (Saccharolobus solfataricus, UniProt Q97W73 1-148); assay: EMSA; 2.5 pmol NurA/HerA, 1.5 pmol SSB, increasing ATP: no effect of ATP on stimulation; EMSA: 5 pmol fluorescent DNA in 10 ul, 20 mM HEPES/NaOH pH 7.5, 35 mM beta-mercaptoethanol, 500 mM NaCl, 50 mM MgCl2 (so in the source), 10 min room temperature, 5% PAGE in 0.5x TBE; details: protein: recombinant; chain copies: 2; single strand
T1 sequence: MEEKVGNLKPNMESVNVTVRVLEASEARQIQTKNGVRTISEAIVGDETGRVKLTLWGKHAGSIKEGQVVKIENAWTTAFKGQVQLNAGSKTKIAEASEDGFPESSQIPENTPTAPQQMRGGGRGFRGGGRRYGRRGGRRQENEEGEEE

HerA [2] = target: T2, HerA (Saccharolobus solfataricus, UniProt Q97WG8 1-500); assay: EMSA; HerA alone, increasing amounts; EMSA: 5 pmol fluorescent DNA in 10 ul, 20 mM HEPES/NaOH pH 7.5, 35 mM beta-mercaptoethanol, 500 mM NaCl, 50 mM MgCl2 (so in the source), 10 min room temperature, 5% PAGE in 0.5x TBE; details: protein: recombinant; chain copies: 6; single strand
T2 sequence: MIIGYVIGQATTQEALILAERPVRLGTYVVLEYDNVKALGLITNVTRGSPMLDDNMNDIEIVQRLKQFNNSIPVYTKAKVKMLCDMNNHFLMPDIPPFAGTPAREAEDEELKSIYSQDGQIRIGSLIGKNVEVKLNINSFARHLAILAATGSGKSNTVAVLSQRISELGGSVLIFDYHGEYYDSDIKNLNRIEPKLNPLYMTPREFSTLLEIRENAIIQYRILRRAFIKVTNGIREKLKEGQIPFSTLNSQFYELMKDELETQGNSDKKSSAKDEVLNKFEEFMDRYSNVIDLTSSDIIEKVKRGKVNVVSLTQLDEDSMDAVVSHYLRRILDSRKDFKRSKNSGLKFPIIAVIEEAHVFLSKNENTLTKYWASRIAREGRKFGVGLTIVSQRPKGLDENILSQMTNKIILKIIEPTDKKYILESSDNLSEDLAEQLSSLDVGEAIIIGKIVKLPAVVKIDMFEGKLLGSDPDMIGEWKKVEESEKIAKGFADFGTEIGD

NurA = target: T3, NurA (Saccharolobus solfataricus, UniProt Q97WH1 1-339); assay: EMSA; with SSB: NurA binding not significantly influenced; EMSA: 5 pmol fluorescent DNA in 10 ul, 20 mM HEPES/NaOH pH 7.5, 35 mM beta-mercaptoethanol, 500 mM NaCl, 50 mM MgCl2 (so in the source), 10 min room temperature, 5% PAGE in 0.5x TBE; details: protein: recombinant; chain copies: 2; single strand
T3 sequence: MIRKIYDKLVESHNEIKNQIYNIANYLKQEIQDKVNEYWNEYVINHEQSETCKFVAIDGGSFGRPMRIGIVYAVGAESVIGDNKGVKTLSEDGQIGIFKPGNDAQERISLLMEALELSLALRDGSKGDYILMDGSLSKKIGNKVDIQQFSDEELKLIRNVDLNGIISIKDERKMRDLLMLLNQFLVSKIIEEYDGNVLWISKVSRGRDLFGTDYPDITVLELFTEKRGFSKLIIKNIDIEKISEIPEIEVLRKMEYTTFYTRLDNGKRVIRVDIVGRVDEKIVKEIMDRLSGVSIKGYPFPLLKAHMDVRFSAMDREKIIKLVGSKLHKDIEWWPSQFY

SSB [3] = target: T1, SSB; assay: EMSA; with NurA/HerA: SSB binding strongly stimulated; EMSA: 5 pmol fluorescent DNA in 10 ul, 20 mM HEPES/NaOH pH 7.5, 35 mM beta-mercaptoethanol, 500 mM NaCl, 50 mM MgCl2 (so in the source), 10 min room temperature, 5% PAGE in 0.5x TBE; details: protein: recombinant
HerA [4] = target: T2, HerA; assay: EMSA; in NurA/HerA with SSB: HerA binding not reduced on fork; EMSA: 5 pmol fluorescent DNA in 10 ul, 20 mM HEPES/NaOH pH 7.5, 35 mM beta-mercaptoethanol, 500 mM NaCl, 50 mM MgCl2 (so in the source), 10 min room temperature, 5% PAGE in 0.5x TBE; details: protein: recombinant; chain copies: 6; fork 1:2; 50 bp duplex, unpaired 5' T20 of strand 1 and 3' 20 nt of strand 2

GTTTTCCCAGTCACGAC (ssDNA) [17 merTAMRA]: binds (SSB [1]); binds (HerA [2]); binds (NurA).

B1: 70 leadCy5 (70 mer) (ssDNA)
DNA: CGTGACTTGATGTTAACCCTAACCCTAAGAATTCGGCTTAAGTGAGTGTGAGGATATCATGTACGATAGC
B1: binds (SSB [3]; chain copies: 2, single strand).

B2: Forked substrate (70 lagFork/70 leadCy5) (dsDNA)
DNA 1: TTTTTTTTTTTTTTTTTTTTCACACTCACTTAAGCCGAATTCTTAGGGTTAGGGTTAACATCAAGTCACG
DNA 2: CGTGACTTGATGTTAACCCTAACCCTAAGAATTCGGCTTAAGTGAGTGTGAGGATATCATGTACGATAGC
B2: binds (HerA [4]); binds (SSB [3]; fork 1:2, 50 bp duplex, unpaired 5' T20 of strand 1 and 3' 20 nt of strand 2).

GCCGTGATCACCAATGCAGATTGACGAACCTTTGCCCACGT (ssDNA) [40 merCy3]: binds (SSB [3]; chain copies: 2, single strand).

GCTATCGTACATGATATCCTC (ssDNA) [21 merTAMRA]: binds (SSB [3]; chain copies: 2, single strand).
